Laboratory results as given in PMC9482650, “Quantitative fragmentomics allow affinity mapping of interactomes” (Nature Communications, 2022).

T1: APBA3_1, O96018
T1 sequence (O96018 389-490, limits assumed, looked up): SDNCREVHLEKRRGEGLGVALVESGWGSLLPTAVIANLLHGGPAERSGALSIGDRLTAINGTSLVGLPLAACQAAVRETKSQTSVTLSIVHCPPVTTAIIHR

T2: ARHGAP21, Q5T5U3
T2 sequence (Q5T5U3 45-169, limits assumed, looked up): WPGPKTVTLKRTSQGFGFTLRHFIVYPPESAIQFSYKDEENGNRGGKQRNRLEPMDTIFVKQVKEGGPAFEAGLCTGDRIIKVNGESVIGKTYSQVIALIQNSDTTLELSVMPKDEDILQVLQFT

T3: SHANK1, Q9Y566
T3 sequence (Q9Y566 658-767, limits assumed, looked up): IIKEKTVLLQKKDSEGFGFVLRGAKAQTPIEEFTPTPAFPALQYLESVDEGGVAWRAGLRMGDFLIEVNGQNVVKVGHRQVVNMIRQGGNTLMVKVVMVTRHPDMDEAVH

T4: LNX2_3, Q8N448
T4 sequence (Q8N448 463-564, limits assumed, looked up): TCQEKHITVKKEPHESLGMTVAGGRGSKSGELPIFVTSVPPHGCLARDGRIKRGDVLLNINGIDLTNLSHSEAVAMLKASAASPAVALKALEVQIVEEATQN

T5: LRRC7, Q96NW7
T5 sequence (Q96NW7 1440-1537, limits assumed, looked up): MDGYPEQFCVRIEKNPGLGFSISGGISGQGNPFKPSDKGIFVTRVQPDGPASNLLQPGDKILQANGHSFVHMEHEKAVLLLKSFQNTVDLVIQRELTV

T6: LIN7C, Q9NUP9
T6 sequence (Q9NUP9 88-185, limits assumed, looked up): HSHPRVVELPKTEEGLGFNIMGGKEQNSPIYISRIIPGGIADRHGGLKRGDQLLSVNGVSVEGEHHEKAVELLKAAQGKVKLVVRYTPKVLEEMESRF

T7: RAPGEF6, Q8TEU7
T7 sequence (Q8TEU7 525-625, limits assumed, looked up): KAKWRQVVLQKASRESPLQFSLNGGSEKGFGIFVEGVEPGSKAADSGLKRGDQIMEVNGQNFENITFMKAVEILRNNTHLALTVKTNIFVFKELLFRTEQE

T8: DLG3_3, Q92796
T8 sequence (Q92796 374-475, limits assumed, looked up): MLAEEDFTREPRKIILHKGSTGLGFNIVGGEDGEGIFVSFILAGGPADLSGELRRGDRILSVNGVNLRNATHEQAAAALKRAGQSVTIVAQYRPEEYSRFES

T9: APBA1_1, Q02410
T9 sequence (Q02410 651-752, limits assumed, looked up): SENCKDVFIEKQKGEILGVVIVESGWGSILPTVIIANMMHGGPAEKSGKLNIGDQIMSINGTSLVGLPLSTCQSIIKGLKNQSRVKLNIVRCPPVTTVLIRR

T10: TJP3_3, O95049
T10 sequence (O95049 375-456, limits assumed, looked up): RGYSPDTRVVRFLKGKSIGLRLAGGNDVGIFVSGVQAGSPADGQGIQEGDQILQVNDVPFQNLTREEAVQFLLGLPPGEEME

T11: FRMPD1, Q5SYB0
T11 sequence (Q5SYB0 52-145, limits assumed, looked up): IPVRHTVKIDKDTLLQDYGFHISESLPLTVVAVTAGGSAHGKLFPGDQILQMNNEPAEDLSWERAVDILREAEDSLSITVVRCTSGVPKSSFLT

B1: ACTN2, P35609 (peptide)
chain: SSALYGESDL
B2: KCNJ1, P48048 (peptide)
chain: EVNETDDTKM
B3: LRRC4B, Q9NT99 (peptide)
chain: SKENVQETQI
B4: TRPC5, Q9UL62 (peptide)
chain: GQEEQVTTRL
B5: ASNSD1, Q9NWL6 (peptide)
chain: NLSIEKETKL

Molecular target: T1, APBA3_1, O96018
Assay: holdup assay
Design: key: below the threshold = too weak to quantify, mostly under pKd 3.1 to 4
Conditions: plain residues with an end cap or a label only (N-terminal biotin on a linker: ado-ado)

Binder	pKd
B1	below the threshold
B2	below the threshold
B3	below the threshold
B4	below the threshold
B5	below the threshold

Molecular target: MAGI2_3, Q86UL8
Assay: holdup assay
Design: key: below the threshold = too weak to quantify, mostly under pKd 3.1 to 4
Conditions: plain residues with an end cap or a label only (N-terminal biotin on a linker: ado-ado)

MAGI2_3, Q86UL8, sequence (Q86UL8 600-682): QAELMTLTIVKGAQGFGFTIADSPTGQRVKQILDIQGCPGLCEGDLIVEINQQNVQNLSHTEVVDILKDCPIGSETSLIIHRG

Binder	pKd
B1	below the threshold
B2	3.48
B3	3.63
B4	below the threshold
B5	below the threshold

Molecular target: GRID2IP_1, A4D2P6
Assay: holdup assay
Design: key: below the threshold = too weak to quantify, mostly under pKd 3.1 to 4
Conditions: plain residues with an end cap or a label only (N-terminal biotin on a linker: ado-ado)

GRID2IP_1, A4D2P6, sequence (A4D2P6 1-87): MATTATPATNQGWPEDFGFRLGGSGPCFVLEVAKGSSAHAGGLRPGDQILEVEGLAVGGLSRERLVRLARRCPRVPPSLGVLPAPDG

Binder	pKd
B1	below the threshold
B2	below the threshold
B3	below the threshold
B4	below the threshold
B5	below the threshold

Molecular target: T2, ARHGAP21, Q5T5U3
Assay: holdup assay
Design: key: below the threshold = too weak to quantify, mostly under pKd 3.1 to 4
Conditions: plain residues with an end cap or a label only (N-terminal biotin on a linker: ado-ado)

Binder	pKd
B1	below the threshold
B2	3.96
B3	below the threshold
B4	4.07
B5	below the threshold

Molecular target: DLG2_2, Q15700
Assay: holdup assay
Design: key: below the threshold = too weak to quantify, mostly under pKd 3.1 to 4
Conditions: plain residues with an end cap or a label only (N-terminal biotin on a linker: ado-ado)

DLG2_2, Q15700, sequence (Q15700 189-283): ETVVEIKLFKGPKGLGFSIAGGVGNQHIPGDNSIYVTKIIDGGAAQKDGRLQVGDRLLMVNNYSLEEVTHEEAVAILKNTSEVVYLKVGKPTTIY

Binder	pKd
B1	3.52
B2	below the threshold
B3	4.47
B4	below the threshold
B5	3.5

Molecular target: T3, SHANK1, Q9Y566
Assay: holdup assay
Design: key: below the threshold = too weak to quantify, mostly under pKd 3.1 to 4
Conditions: plain residues with an end cap or a label only (N-terminal biotin on a linker: ado-ado)

Binder	pKd
B1	3.91
B2	3.73
B3	3.98
B4	5.61
B5	4.52

Molecular target: T4, LNX2_3, Q8N448
Assay: holdup assay
Design: key: below the threshold = too weak to quantify, mostly under pKd 3.1 to 4
Conditions: plain residues with an end cap or a label only (N-terminal biotin on a linker: ado-ado)

Binder	pKd
B1	below the threshold
B2	below the threshold
B3	below the threshold
B4	below the threshold
B5	below the threshold

Molecular target: PTPN3, P26045
Assay: holdup assay
Design: key: below the threshold = too weak to quantify, mostly under pKd 3.1 to 4
Conditions: plain residues with an end cap or a label only (N-terminal biotin on a linker: ado-ado)

PTPN3, P26045, sequence (P26045 505-587): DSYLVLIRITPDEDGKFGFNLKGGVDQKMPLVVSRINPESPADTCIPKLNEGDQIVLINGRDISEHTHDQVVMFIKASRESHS

Binder	pKd
B1	4.45
B2	4.35
B3	4.8
B4	4.54
B5	5.21

Molecular target: Inadl_4, Q8NI35
Assay: holdup assay
Design: key: below the threshold = too weak to quantify, mostly under pKd 3.1 to 4
Conditions: plain residues with an end cap or a label only (N-terminal biotin on a linker: ado-ado)

Inadl_4, Q8NI35, sequence (Q8NI35 547-651): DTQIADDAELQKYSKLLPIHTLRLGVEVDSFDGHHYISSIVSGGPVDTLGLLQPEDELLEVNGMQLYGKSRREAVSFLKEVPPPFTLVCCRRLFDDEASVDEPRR

Binder	pKd
B1	below the threshold
B2	below the threshold
B3	below the threshold
B4	below the threshold
B5	below the threshold

Molecular target: MAGI3_2, Q5TCQ9
Assay: holdup assay
Design: key: below the threshold = too weak to quantify, mostly under pKd 3.1 to 4
Conditions: plain residues with an end cap or a label only (N-terminal biotin on a linker: ado-ado)

MAGI3_2, Q5TCQ9, sequence (Q5TCQ9 398-503): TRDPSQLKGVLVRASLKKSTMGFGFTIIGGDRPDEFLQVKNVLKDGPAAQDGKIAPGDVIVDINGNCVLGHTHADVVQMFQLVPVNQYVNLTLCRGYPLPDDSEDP

Binder	pKd
B1	below the threshold
B2	below the threshold
B3	4.37
B4	below the threshold
B5	below the threshold

Molecular target: T5, LRRC7, Q96NW7
Assay: holdup assay
Design: key: below the threshold = too weak to quantify, mostly under pKd 3.1 to 4
Conditions: plain residues with an end cap or a label only (N-terminal biotin on a linker: ado-ado)

Binder	pKd
B1	3.86
B2	below the threshold
B3	below the threshold
B4	below the threshold
B5	below the threshold

Molecular target: T6, LIN7C, Q9NUP9
Assay: holdup assay
Design: key: below the threshold = too weak to quantify, mostly under pKd 3.1 to 4
Conditions: plain residues with an end cap or a label only (N-terminal biotin on a linker: ado-ado)

Binder	pKd
B1	below the threshold
B2	below the threshold
B3	3.88
B4	below the threshold
B5	4.2

Molecular target: NHERF4_1, Q86UT5-2
Assay: holdup assay
Design: key: below the threshold = too weak to quantify, mostly under pKd 3.1 to 4
Conditions: plain residues with an end cap or a label only (N-terminal biotin on a linker: ado-ado)

NHERF4_1, Q86UT5-2, sequence (Q86UT5 other isoform, or with tags, fused parts or gaps): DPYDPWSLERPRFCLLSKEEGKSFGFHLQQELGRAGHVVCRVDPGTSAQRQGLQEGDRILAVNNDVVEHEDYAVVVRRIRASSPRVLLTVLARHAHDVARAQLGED

Binder	pKd
B1	3.88
B2	below the threshold
B3	below the threshold
B4	4.38
B5	3.87

Molecular target: T7, RAPGEF6, Q8TEU7
Assay: holdup assay
Design: key: below the threshold = too weak to quantify, mostly under pKd 3.1 to 4
Conditions: plain residues with an end cap or a label only (N-terminal biotin on a linker: ado-ado)

Binder	pKd
B1	3.6
B2	below the threshold
B3	3.52
B4	below the threshold
B5	below the threshold

Molecular target: T8, DLG3_3, Q92796
Assay: holdup assay
Design: key: below the threshold = too weak to quantify, mostly under pKd 3.1 to 4
Conditions: plain residues with an end cap or a label only (N-terminal biotin on a linker: ado-ado)

Binder	pKd
B1	3.6
B2	below the threshold
B3	3.68
B4	below the threshold
B5	below the threshold

Molecular target: NHERF4_2, Q86UT5
Assay: holdup assay
Design: key: below the threshold = too weak to quantify, mostly under pKd 3.1 to 4
Conditions: plain residues with an end cap or a label only (N-terminal biotin on a linker: ado-ado)

NHERF4_2, Q86UT5, sequence (Q86UT5 220-308): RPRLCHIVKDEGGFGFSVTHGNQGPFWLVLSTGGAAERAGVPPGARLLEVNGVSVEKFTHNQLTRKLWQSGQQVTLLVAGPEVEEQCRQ

Binder	pKd
B1	below the threshold
B2	below the threshold
B3	below the threshold
B4	below the threshold
B5	below the threshold

Molecular target: T9, APBA1_1, Q02410
Assay: holdup assay
Design: key: below the threshold = too weak to quantify, mostly under pKd 3.1 to 4
Conditions: plain residues with an end cap or a label only (N-terminal biotin on a linker: ado-ado)

Binder	pKd
B1	below the threshold
B2	below the threshold
B3	3.48
B4	below the threshold
B5	below the threshold

Molecular target: FRMPD2_1, Q68DX3
Assay: holdup assay
Design: key: below the threshold = too weak to quantify, mostly under pKd 3.1 to 4
Conditions: plain residues with an end cap or a label only (N-terminal biotin on a linker: ado-ado)

FRMPD2_1, Q68DX3, sequence (Q68DX3 770-861): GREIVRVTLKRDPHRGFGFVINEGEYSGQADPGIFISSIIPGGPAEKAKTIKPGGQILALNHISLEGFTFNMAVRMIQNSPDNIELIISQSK

Binder	pKd
B1	below the threshold
B2	below the threshold
B3	below the threshold
B4	below the threshold
B5	below the threshold

Molecular target: PARD3_3, Q8TEW0
Assay: holdup assay
Design: key: below the threshold = too weak to quantify, mostly under pKd 3.1 to 4
Conditions: plain residues with an end cap or a label only (N-terminal biotin on a linker: ado-ado)

PARD3_3, Q8TEW0, sequence (Q8TEW0 582-685): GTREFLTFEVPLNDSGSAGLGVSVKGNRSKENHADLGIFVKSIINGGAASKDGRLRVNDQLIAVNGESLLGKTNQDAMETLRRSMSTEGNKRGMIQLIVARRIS

Binder	pKd
B1	below the threshold
B2	below the threshold
B3	3.78
B4	3.5
B5	below the threshold

Molecular target: T10, TJP3_3, O95049
Assay: holdup assay
Design: key: below the threshold = too weak to quantify, mostly under pKd 3.1 to 4
Conditions: plain residues with an end cap or a label only (N-terminal biotin on a linker: ado-ado)

Binder	pKd
B1	below the threshold
B2	below the threshold
B3	below the threshold
B4	below the threshold
B5	below the threshold

Molecular target: LDB3, O75112
Assay: holdup assay
Design: key: below the threshold = too weak to quantify, mostly under pKd 3.1 to 4
Conditions: plain residues with an end cap or a label only (N-terminal biotin on a linker: ado-ado)

LDB3, O75112, sequence (O75112 1-94): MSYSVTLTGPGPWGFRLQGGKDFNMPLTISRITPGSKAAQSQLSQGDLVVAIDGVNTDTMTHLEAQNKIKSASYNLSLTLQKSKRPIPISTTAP

Binder	pKd
B1	4.4
B2	below the threshold
B3	below the threshold
B4	below the threshold
B5	below the threshold

Molecular target: PDLIM1, O00151
Assay: holdup assay
Design: key: below the threshold = too weak to quantify, mostly under pKd 3.1 to 4
Conditions: plain residues with an end cap or a label only (N-terminal biotin on a linker: ado-ado)

PDLIM1, O00151, sequence (O00151 1-87): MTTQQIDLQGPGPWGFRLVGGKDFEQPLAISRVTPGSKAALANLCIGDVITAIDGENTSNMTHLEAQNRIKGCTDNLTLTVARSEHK

Binder	pKd
B1	4.75
B2	below the threshold
B3	below the threshold
B4	below the threshold
B5	below the threshold

Molecular target: Inadl_2, Q8NI35
Assay: holdup assay
Design: key: below the threshold = too weak to quantify, mostly under pKd 3.1 to 4
Conditions: plain residues with an end cap or a label only (N-terminal biotin on a linker: ado-ado)

Inadl_2, Q8NI35, sequence (Q8NI35 238-335): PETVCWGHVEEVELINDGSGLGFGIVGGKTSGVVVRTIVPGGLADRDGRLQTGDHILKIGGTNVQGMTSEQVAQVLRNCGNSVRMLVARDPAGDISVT

Binder	pKd
B1	below the threshold
B2	below the threshold
B3	below the threshold
B4	below the threshold
B5	below the threshold

Molecular target: AHNAK1, Q09666
Assay: holdup assay
Design: key: below the threshold = too weak to quantify, mostly under pKd 3.1 to 4
Conditions: plain residues with an end cap or a label only (N-terminal biotin on a linker: ado-ado)

AHNAK1, Q09666, sequence (Q09666 4-100): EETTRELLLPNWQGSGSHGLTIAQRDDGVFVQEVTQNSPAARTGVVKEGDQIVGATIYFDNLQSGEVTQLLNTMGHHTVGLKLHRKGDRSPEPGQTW

Binder	pKd
B1	below the threshold
B2	below the threshold
B3	below the threshold
B4	below the threshold
B5	below the threshold

Molecular target: T11, FRMPD1, Q5SYB0
Assay: holdup assay
Design: key: below the threshold = too weak to quantify, mostly under pKd 3.1 to 4
Conditions: plain residues with an end cap or a label only (N-terminal biotin on a linker: ado-ado)

Binder	pKd
B1	below the threshold
B2	below the threshold
B3	below the threshold
B4	below the threshold
B5	below the threshold

Molecular target: Inadl_8, Q8NI35
Assay: holdup assay
Design: key: below the threshold = too weak to quantify, mostly under pKd 3.1 to 4
Conditions: plain residues with an end cap or a label only (N-terminal biotin on a linker: ado-ado)

Inadl_8, Q8NI35, sequence (Q8NI35 1425-1530): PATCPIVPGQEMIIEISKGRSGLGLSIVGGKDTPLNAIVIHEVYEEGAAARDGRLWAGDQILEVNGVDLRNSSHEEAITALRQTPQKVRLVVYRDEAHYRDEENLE

Binder	pKd
B1	below the threshold
B2	below the threshold
B3	below the threshold
B4	below the threshold
B5	below the threshold

Molecular target: MAGI2_4, Q86UL8
Assay: holdup assay
Design: key: below the threshold = too weak to quantify, mostly under pKd 3.1 to 4
Conditions: plain residues with an end cap or a label only (N-terminal biotin on a linker: ado-ado)

MAGI2_4, Q86UL8, sequence (Q86UL8 772-865): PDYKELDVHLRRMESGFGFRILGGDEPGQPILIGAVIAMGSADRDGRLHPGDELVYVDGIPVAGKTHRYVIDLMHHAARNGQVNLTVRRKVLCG

Binder	pKd
B1	below the threshold
B2	3.63
B3	below the threshold
B4	below the threshold
B5	below the threshold
